Measurements taken from article PMC9610538, “Trihelix Transcriptional Factor GhGT26 of Cotton Enhances Salinity Tolerance in Arabidopsis”.

T1: GhGT26 (GST fusion) (Gossypium hirsutum, UniProt A0A8J9W0A6 1-391)
T1 sequence: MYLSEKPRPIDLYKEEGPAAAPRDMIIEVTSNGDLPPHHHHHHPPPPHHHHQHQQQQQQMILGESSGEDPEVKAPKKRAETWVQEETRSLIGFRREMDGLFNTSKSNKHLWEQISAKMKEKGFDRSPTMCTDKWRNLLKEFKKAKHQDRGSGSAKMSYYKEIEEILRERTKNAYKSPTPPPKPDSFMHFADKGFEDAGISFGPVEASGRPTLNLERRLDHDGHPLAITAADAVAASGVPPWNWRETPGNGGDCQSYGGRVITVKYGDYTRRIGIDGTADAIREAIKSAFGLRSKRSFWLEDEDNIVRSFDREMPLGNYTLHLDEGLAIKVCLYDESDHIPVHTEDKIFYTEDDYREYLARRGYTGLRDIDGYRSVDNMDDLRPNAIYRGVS

B1: Site1-type (GT-3a) (dsDNA)
DNA 1: GCGTTACCGTTACCGTTACCAA
DNA 2: TTGGTAACGGTAACGGTAACGC
B2: MRE3 (dsDNA)
DNA 1: TCTAACCTACTAACCTACTAACCTACCA
DNA 2: TGGTAGGTTAGTAGGTTAGTAGGTTAGA
B3: MRE4 (dsDNA)
DNA 1: TATCTCACCTCTCACCTCTCACCGT
DNA 2: ACGGTGAGAGGTGAGAGGTGAGATA

What follows are binders tested against T1, GhGT26 (GST fusion) (assay: EMSA; signal dramatically reduced by unlabeled competitor; Oligos annealed in 50 mM NaCl (70 °C 5 min, then room temperature); EMSA binding buffer, pH and temperature not given (as in ref. 48)). Details: protein: recombinant; tags: GST (pGEX6p-1); label: digoxigenin; blunt (reverse complement stated).

Binding result, binds:
B1, B2, B3
